The text below walks through data of US20240166695A1 (University of California, published 2024).

The target of one assay is T1, ARD of TRPV1 (Rattus norvegicus (Rat), UniProt O35433 101-364).
T1 construct: Purified from E. coli and immobilised on a CM5 chip by amine coupling; also called TRPV1 ARD; ankyrin repeat-like domain
Nature of the assay: SPR steady state, ARD immobilised on CM5 chip, design as analyte, 25 C.

The next assay concerns the target TRPV1. Briefly: cell-based or functional assay.

T1 sequence (O35433 other isoform, or with tags, fused parts or gaps limits assumed): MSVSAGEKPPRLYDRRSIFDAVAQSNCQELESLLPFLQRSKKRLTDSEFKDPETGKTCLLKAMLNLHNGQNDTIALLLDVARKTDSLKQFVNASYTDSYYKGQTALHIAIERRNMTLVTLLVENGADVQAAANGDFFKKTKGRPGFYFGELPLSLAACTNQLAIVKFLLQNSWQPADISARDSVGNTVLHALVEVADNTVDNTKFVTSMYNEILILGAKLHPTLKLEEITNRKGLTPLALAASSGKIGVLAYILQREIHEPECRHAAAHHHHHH
Description for ARD of TRPV1: The purified ARD was immobilized on the CM5 SPR sensor chip by an amine-coupling procedure. SPR experiments were conducted on the Biacore T3000 instrument (GE healthcare). The designed proteins were perfused as analytes. Steady-state SPR responses were measured and used to determine the KD values. In all experiments, the analysis was performed at 25° C., with an association time of 120 see at a flow rate of 20 μL/min.

B1: De1 (designed binder)
chain: NGYSSEDKLRIAKRHLLPKQIERNALKKGELFVSEFAILGIILFYTDEAGVRGLEREISKLCRKAVKQLLLDKSTTSSHASGFHLHDYLGVMR
notes: For SPR: expressed from pET-32a in E. coli BL21(DE3), purified on a Ni column and by HPLC; also called Del; designed protein De1
Broadly, the Kd is the constant that tells how readily two partners part at equilibrium. A lower Kd goes with a tighter complex. Take B1: the Kd with ARD of TRPV1 was determined as 26.5 nM. Moreover, the “EC50 of capsaicin activation of TRPV1 co-expressed with De1 (whole-cell patch clamp)” value in the assay with TRPV1 turned out to be 50.9 nM.
